The source of these data is publication PMC7670456.

Series [1] is described as follows: immunoblot of endogenous SMAD4, A549. Conditions: control: mock / control siRNA / DMSO / 5 mM glucose. (A western blot detects proteins with antibodies after separation by electrophoresis.)
Series [2] can be described thus: anti-FLAG IP, anti-phospho-threonine blot, HEK293, EGF. The conditions noted are these: glycan gained; control: no OGT overexpression.
Series [3] is described as follows: CHX chase, immunoblot, A549.
Series [4] can be described thus: denaturing anti-FLAG IP, HA-Ub blot, HEK293, MG132. The conditions noted are these: glycan lost; control: FLAG-SMAD4 WT.

B1: SMAD4: OGT overexpression (protein)
parent chain: MDNMSITNTPTSNDACLSIVHSLMCHRQGGESETFAKRAIESLVKKLKEKKDELDSLITAITTNGAHPSKCVTIQRTLDGRLQVAGRKGFPHVIYARLWRWPDLHKNELKHVKYCQYAFDLKCDSVCVNPYHYERVVSPGIDLSGLTLQSNAPSSMMVKDEYVHDFEGQPSLSTEGHSIQTIQHPPSNRASTETYSTPALLAPSESNATSTANFPNIPVASTSQPASILGGSHSEGLLQIASGPQPGQQQNGFTGQPATYHHNSTTTWTGSRTAPYTPNLPHHQNGHLQHHPPMPPHPGHYWPVHNELAFQPPISNHPAPEYWCSIAYFEMDVQVGETFKVPSSCPIVTVDGYVDPSGGDRFCLGQLSNVHRTEAIERARLHIGKGVQLECKGEGDVWVRCLSDHAVFVQSYYLDREAGRAPGDAVHKIYPSAYIKVFDLRQCHRQMQQQAATAQAAAAAQAAAVAGNIPGPGSVGGIAPAISLSAAAGIGVDDLRRLCILRMSFVKGWGPDYPRQSIKETPCWIEIHLHRALQLLDEVLHTMPIADPQPLD
Take B1: the expression_or_secretion result in series [1] (glycan gained) is on record as “increases”. Moreover, the “other: threonine phosphorylation” value in series [2] is recorded as “decreases”.

B2: SMAD4: OSMI-1 (protein)
parent chain: B1 parent chain
Turning to B2, in series [1] (glycan lost), the expression_or_secretion entry is given as “decreases”.

B3: SMAD4: thiamet-G (protein)
parent chain: B1 parent chain
As for B3, the expression_or_secretion entry in series [1] (glycan gained) is recorded as “increases”. In series [3] (glycan gained, control: untreated (endogenous SMAD4)), the degradation_or_half_life entry is on record as “increases”.

B4: SMAD4: QM (protein)
parent chain: B1 parent chain
Consider B4, for which the “other: polyubiquitination” value in series [4] was “increases”.

B5: SMAD4: T63V (protein)
parent chain: B1 parent chain
As for B5, the “other: polyubiquitination” value in series [4] is “increases”. In addition, the degradation_or_half_life result in series [3] (glycan lost, control: FLAG-SMAD4 WT) is reported as “decreases”.
